# Test results reported in patent US20060258562.
# Molecular target: STAT3 (Signal Transducer and Activator of Transcription 3), P42227
# Sequence (P42227 2-770): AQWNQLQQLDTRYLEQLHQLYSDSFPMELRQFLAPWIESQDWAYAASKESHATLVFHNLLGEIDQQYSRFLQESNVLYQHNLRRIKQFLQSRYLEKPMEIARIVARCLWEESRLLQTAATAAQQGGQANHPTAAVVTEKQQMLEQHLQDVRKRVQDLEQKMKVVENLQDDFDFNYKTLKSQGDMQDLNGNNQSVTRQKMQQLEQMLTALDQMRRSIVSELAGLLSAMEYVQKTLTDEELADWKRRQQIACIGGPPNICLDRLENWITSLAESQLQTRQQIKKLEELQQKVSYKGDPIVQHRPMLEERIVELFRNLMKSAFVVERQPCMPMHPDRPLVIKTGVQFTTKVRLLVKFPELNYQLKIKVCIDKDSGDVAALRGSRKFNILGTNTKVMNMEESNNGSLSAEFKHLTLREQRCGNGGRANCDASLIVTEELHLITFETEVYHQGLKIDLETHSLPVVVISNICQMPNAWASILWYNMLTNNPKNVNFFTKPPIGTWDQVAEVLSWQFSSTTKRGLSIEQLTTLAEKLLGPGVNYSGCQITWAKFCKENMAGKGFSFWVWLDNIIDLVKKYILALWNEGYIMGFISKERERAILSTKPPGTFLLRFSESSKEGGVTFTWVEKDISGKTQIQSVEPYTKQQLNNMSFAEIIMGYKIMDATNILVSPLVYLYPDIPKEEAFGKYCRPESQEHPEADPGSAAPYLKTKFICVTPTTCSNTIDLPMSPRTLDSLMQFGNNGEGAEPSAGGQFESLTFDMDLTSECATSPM
protein,measurement,value
PKCδ (protein kinase C delta) (protein) MAPFLRISFNSYELGSLQVEDEASQPFCAVKMKEALSTERGKTLVQKKPTMYPEWKTTFDAHIYEGRVIQIVLMRAAEDPVSEVTVGVSVLAERCKKNNGKAEFWLDLQPQAKVLMCVQYFLEDGDCKQSMRSEEEAKFPTMNRRGAIKQAKIHYIKNHEFIATFFGQPTFCSVCKEFVWGLNKQGYKCRQCNAAIHKKCIDKIIGRCTGTATNSRDTIFQKERFNIDMPHRFKVYNYMSPTFCDHCGSLLWGLVKQGLKCEDCGMNVHHKCREKVANLCGINQKLLAEALNQVTQRSSRKLDTTESVGIYQGFEKKPEVSGSDILDNNGTYGKIWEGSTRCTLENFTFQKVLGKGSFGKVLLAELKGKDKYFAIKCLKKDVVLIDDDVECTMVEKRVLALAWESPFLTHLICTFQTKDHLFFVMEFLNGGDLMFHIQDKGRFELYRATFYAAEIICGLQFLHSKGIIYRDLKLDNVMLDRDGHIKIADFGMCKENIFGEGRASTFCGTPDYIAPEILQGLKYSFSVDWWSFGVLLYEMLIGQSPFHGDDEDELFESIRVDTPHYPRWITKESKDIMEKLFERDPDKRLGVTGNIRIHPFFKTINWSLLEKRKVEPPFKPKVKSPSDYSNFDPEFLNEKPQLSFSDKNLIDSMDQEAFHGFSFVNPKFEQFLDI,"immunofluorescence with antiphospho-Tyr-705-STAT3 antibody after insulin stimulation, with or without rottlerin","Following insulin stimulation, PKCδ is activated and in turn phosphorylates and activates STAT3"
